The results in this text go back to patent US20210292433A1 (MUSC FOUNDATION FOR RESEARCH DEVELOPMENT, published 2021).

This test has as its target T1, human GARP (Glycoprotein A Repetitions Predominant, LRRC32) stably expressed on Pre-B (70Z/3) cells (human, UniProt Q14392 20-662).
T1 construct: whole, on cells; also called hGARP; huGARP
T1 sequence (looked up): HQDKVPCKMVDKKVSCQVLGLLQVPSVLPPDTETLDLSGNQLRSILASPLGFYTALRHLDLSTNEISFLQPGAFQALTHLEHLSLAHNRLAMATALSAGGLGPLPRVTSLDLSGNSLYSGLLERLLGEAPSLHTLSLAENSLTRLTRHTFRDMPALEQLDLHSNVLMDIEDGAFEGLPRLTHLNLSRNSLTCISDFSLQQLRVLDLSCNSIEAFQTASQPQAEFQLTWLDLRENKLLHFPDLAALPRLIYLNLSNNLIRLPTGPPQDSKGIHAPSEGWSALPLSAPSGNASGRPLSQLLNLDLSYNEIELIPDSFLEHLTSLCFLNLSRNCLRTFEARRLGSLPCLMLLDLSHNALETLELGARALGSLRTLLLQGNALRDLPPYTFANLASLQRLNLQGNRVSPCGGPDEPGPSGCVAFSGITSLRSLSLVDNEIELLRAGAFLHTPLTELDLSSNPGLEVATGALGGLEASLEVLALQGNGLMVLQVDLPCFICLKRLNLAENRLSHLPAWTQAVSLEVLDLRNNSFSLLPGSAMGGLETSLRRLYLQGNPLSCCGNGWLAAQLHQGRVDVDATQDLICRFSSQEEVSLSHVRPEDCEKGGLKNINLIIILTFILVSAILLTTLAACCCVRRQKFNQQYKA
Nature of the test: flow cytometry on Pre-B cells stably expressing human GARP (FIG. 7A).

B1: 5C5 anti-GARP monoclonal antibody (antibody, V domains shown)
VH: EVKLVESGGGSVKPGGSLKLSCAASGFTFSNYVMSWVRQTPEKRLEWVATISSGGSYTYYPDSVKGRLTISRDNAKNTLYLQMSSLRSEDTAMYYCARGYDNGDYVMDYWGQGTSVTVSS
VL: DIVLTQSPASLAVSLGQRATISCRASESVDTYGNSFMHWYQQIPGQPPKVLIYRASNLESGIPARFSGSGSRTDFTLTINPVEAGDVATYYCQQTNEHPPTFGGGTKLEIK
notes: Mouse hybridoma mAb; also called 5C5 (IgG2a)
Consider B1, for which the binding result is given as “binds”.
